The text below walks through data of patent publication US11319530B2, “Host cells and systems for membrane protein expression” (President and Fellows of Harvard College, priority 2015, dated 2022).

The labels stand for the following.
B1: FLAG-tagged E. coli DsbAC33A (pFH442: pFH441 C33A-FLAG) (enzyme, UniProt P0AEG4 20-208, looked up)
chain: AQYEDGKQYTTLEKPVAGAPQVLEFFSFFCPHAYQFEEVLHISDNVKKKLPEGVKMTKYHVNFMGGDLGKDLTQAWAVAMALGVEDKVTVPLFEGVQKTQTIRSASDIRDVFINAGIKGEEYDAAWNSFVVKSLVAQQEKAAADVQLRGVPAMFVNGKYQLNPQGMDTSNMDVFVQQYADTVKYLSEKK
notes: by common usage C33 of DsbA is counted on the mature (periplasmic) protein, not on the precursor; Expressed from pBAD43 in E. coli; also called C33A mutant of DsbA; not shown: FLAG tag

The target of data set [1] is T1, rat VKORc1ΔAAR expressed in FSH231 (Rattus norvegicus, UniProt Q6TEK4, DEL31-33).
T1 construct: expressed in transfected cells; host or cells: E. coli FSH231 (ΔdsbB, yidCT362I, hslVC160Y, malF-lacZ102 reporter), pTrc99a plasmid
T1 sequence (Q6TEK4 with tags, fused parts or gaps DEL31-33): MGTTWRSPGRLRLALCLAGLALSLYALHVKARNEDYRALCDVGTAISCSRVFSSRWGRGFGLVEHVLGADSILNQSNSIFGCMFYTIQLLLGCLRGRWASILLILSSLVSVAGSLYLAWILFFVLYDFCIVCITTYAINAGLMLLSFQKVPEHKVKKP
Description: blue/white agar assay in 384 well plates using the β-Gal^dbs reporter (dose-dependent inhibition of VKORc1). Format: cell-based. The following applies: FIG. 4 Panel A; for dose-dependent inhibition of VKORc1: rat VKORc1ΔAAR expressed in E. coli FSH231 (ΔdsbB, yidCT362I, hsIVC160Y).

Data set [2] deals with the molecule itself. Description: immunoblot, FIG. 4 Panel C.
For the next data set, the target named is T2, VKORc1ΔAAR, G60D (Rattus norvegicus, UniProt Q6TEK4, C16A/C85A/C96A/DEL31-33/G60D).
T2 construct: expressed in transfected cells; host or cells: E. coli FSH231 (ΔdsbB, yidCT362I, hslVC160Y), pTrc99a plasmid, co-transformed with pBAD43 (empty, or carrying DsbA or DsbAC33A)
T2 sequence (Q6TEK4 with tags, fused parts or gaps C16A/DEL31-33/G60D/C85A/C96A): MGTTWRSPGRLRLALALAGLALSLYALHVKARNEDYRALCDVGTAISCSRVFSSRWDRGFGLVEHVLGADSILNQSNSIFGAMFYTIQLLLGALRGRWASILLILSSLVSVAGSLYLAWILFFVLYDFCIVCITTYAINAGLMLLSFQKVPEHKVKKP
Nature of the data set: motility assay, low agar motility plates of FSH231. The settings on record: FSH231 co-expressing VKORc1ΔAAR, G60D and DsbAC33A, in the presence of DsbAwt; FIG. 4 Panel B. It is filed as cell-based. As for the experimental part:
Bacterial motility was assayed by stabbing a colony into 0.3% minimal medium Agar plates containing M63 salts, 0.2% Glucose, IPTG, and carbenicillin. Motility was examined after two days of growth at 30 C. When using arabinose to induce expression from pBAD promoter, 0.5% glycerol was used instead of glucose in addition to 0.1% NZ to enhance motility.
As expected, the function of VKORc1ΔAAR in disulfide bond formation was dependent on E. coli DsbA, the presumed substrate of the now functional VKORc1ΔAAR. To determine whether VKORc1ΔAAR interacts directly with DsbA in vivo, we used a C33A mutant of DsbA which forms a detectable stable complex with DsbB and asked whether a similar scenario occurs with VKORc1ΔAAR (23). We used the highly expressed VKORc1ΔAAR, G60D lacking all nonessential cysteines expressed in a ΔdsbB, yidCT362I, hsIVC160Y strain (FSH231). […] When TCA-precipitated proteins of FSH231 strain expressing both T7-tagged VKORc1ΔAAR, G60D and FLAG-tagged DsbAC33A are run on a non-reducing SDS-PAGE and probed by either anti-T7 or FLAG tags antibodies, a VKORc1-DsbA complex band around 40 kDa can be seen (FIG. 4., Panel C) that is DTT-sensitive. The complex formation is also observed when using VKORc1 lacking C51, but disappears in the absence of C46 or C132, unless the removal of C132 is accompanied by the removal of C51 (FIG. 4., Panel C). […]

Data set [3] deals with B1. Description: non-reducing SDS-PAGE of TCA-precipitated proteins of FSH231, immunoblot with anti-T7 or anti-FLAG; mixed disulfide. (A western blot detects proteins with antibodies after separation by electrophoresis.)
Data set [4] addresses B1. Description: non-reducing SDS-PAGE of TCA-precipitated proteins of FSH231, immunoblot with anti-T7 or anti-FLAG.
In data set [5] the target is B1. Description: non-reducing SDS-PAGE immunoblot; mixed disulfide.

`O=C1c2ccccc2C(=O)C1c1ccc(Br)cc1` [bromindione]: the “dose-dependent inhibition of VKORc1” value in data set [1] is recorded as “inhibited”. Further, the “inhibitory effect compared with warfarin” value in data set [1] (rat VKORc1ΔAAR expressed in E. coli FSH231) was “stronger inhibitory effects than warfarin”.

Turning to `CC(=O)CC(c1ccccc1)c1c(O)c2ccccc2oc1=O` (stereo not drawn) [warfarin], the “dose-dependent inhibition of VKORc1” value in data set [1] is “inhibited”.

Regarding B1, the binding result in data set [2] is “binds”.

B2: DsbAC33A: C33A mutant of E. coli DsbA, expressed from pBAD43; forms mixed disulfide with VKORc1 (protein)
chain: AQYEDGKQYTTLEKPVAGAPQVLEFFSFFCPHAYQFEEVLHISDNVKKKLPEGVKMTKYHVNFMGGDLGKDLTQAWAVAMALGVEDKVTVPLFEGVQKTQTIRSASDIRDVFINAGIKGEEYDAAWNSFVVKSLVAQQEKAAADVQLRGVPAMFVNGKYQLNPQGMDTSNMDVFVQQYADTVKYLSEKK
modifications: left off: small tags and cut ends
B2: the “inhibition of VKORc1 function (motility)” value with VKORc1ΔAAR, G60D was “inhibits the function of VKORc1”.

B3: T7-tagged rat VKORc1ΔAAR, G60D lacking all nonessential cysteines (pFH436: rat VKORc1 C16A ΔA31AR G60D C85A C96A-linker-T7 tag) (enzyme)
chain: MGTTWRSPGRLRLALALAGLALSLYALHVKARNEDYRALCDVGTAISCSRVFSSRWDRGFGLVEHVLGADSILNQSNSIFGAMFYTIQLLLGALRGRWASILLILSSLVSVAGSLYLAWILFFVLYDFCIVCITTYAINAGLMLLSFQKVPEHKVKKPGTGGGSGGGSGS
notes: Expressed in E. coli FSH231 (ΔdsbB, yidCT362I, hslVC160Y); not shown: C-terminal T7 tag
For the molecule B3, the binding result in data set [3] is given as “binds”.

B4: rat VKORc1 C16A ΔA31AR G60D C85A C96A C132A-linker-T7 tag (pFH439) (enzyme)
chain: MGTTWRSPGRLRLALALAGLALSLYALHVKARNEDYRALCDVGTAISCSRVFSSRWDRGFGLVEHVLGADSILNQSNSIFGAMFYTIQLLLGALRGRWASILLILSSLVSVAGSLYLAWILFFVLYDFAIVCITTYAINAGLMLLSFQKVPEHKVKKPGTGGGSGGGSGS
notes: also called VKORc1 in the absence of C132; not shown: C-terminal T7 tag
For the molecule B4, in data set [4], the binding result was “no binding”.

B5: rat VKORc1 C16A C51A ΔA31AR G60D C85A C96A-linker-T7 tag (pFH438) (enzyme)
chain: MGTTWRSPGRLRLALALAGLALSLYALHVKARNEDYRALCDVGTAISASRVFSSRWDRGFGLVEHVLGADSILNQSNSIFGAMFYTIQLLLGALRGRWASILLILSSLVSVAGSLYLAWILFFVLYDFCIVCITTYAINAGLMLLSFQKVPEHKVKKPGTGGGSGGGSGS
notes: also called VKORc1 lacking C51; not shown: C-terminal T7 tag
In the case of B5, the binding result in data set [5] is reported as “binds”.

B6: rat VKORc1 C16A C51A ΔA31AR G60D C85A C96A C132A-linker-T7 tag (pFH440) (enzyme)
chain: MGTTWRSPGRLRLALALAGLALSLYALHVKARNEDYRALCDVGTAISASRVFSSRWDRGFGLVEHVLGADSILNQSNSIFGAMFYTIQLLLGALRGRWASILLILSSLVSVAGSLYLAWILFFVLYDFAIVCITTYAINAGLMLLSFQKVPEHKVKKPGTGGGSGGGSGS
notes: also called VKORc1 with removal of C132 accompanied by the removal of C51; not shown: C-terminal T7 tag
As to B6, the binding result in data set [5] is recorded as “binds”.
